Assay results as given in the RNAGym collection of RNA variant scans (doi:10.1021/acssynbio.7b00057).

B1: Pistol ribozyme (parent)
chain: GGGUCGUUGUUCCAUAAUCGCGUGGAUAUGGCACGCAAGUUUCUACCGGGCACCGUAAAUGUCCGACUGGAGCCGUUCGGGCGGCUAUAAACAGACCUCAGGCCCGAAGCGUGGCGGCACCUGCCGCCGGUGGUAAAAAAGAUCGGAAGAGCACACGUCU

Variants of: B1
Assay: aptazyme ON/OFF ratio, guanine; higher = stronger switching; co-transcriptional cleavage with and without guanine

| Variant | aptazyme ON/OFF ratio |
| --- | --- |
| U7A U8G U10A U11G C12G C13G | 1.43 |
| U7A U8G U10A U11G C12G C13U | 1.46 |
| U7A U8G U10A U11G C12G C13A | 1.16 |
| U7A U8G U10G U11G C12G C13U | 1.18 |
| U7A U8G U10G U11G C12G C13A | 1.45 |
| U7A U8G U10G U11G C12G C13G | 1.03 |
| U7A U8G U11A C12U | 1.23 |
| U7A U8G U11A C12G | 1.2 |
| U7A U8G U11A C12A | 1.43 |
| U7A U8G G9U U11A C13G | 1.25 |
| U7A U8G G9U U11A C13A | 1.38 |
| U7A U8G G9U U11A C13U | 1.44 |
| U7A U8G U10A U11A C12A | 1.47 |
| U7A U8G U10A U11A C12U | 1.38 |
| U7A U8G U10A U11A C12G | 1.13 |
| U7A U8G U10G C12G C13A | 1.26 |
| U7A U8G U10G C12G C13U | 1.21 |
| U7A U8G U10G C12G C13G | 1.3 |
| U7A U8G U10A U11G C12A | 1.43 |
| U7A U8G U10A U11G C12U | 1.12 |
| U7A U8G U10A U11G C12G | 1.32 |

| Variant | aptazyme ON/OFF ratio |
| --- | --- |
| U7A U8G U10C U11G C12A C13U | 1.19 |
| U7A U8G U10C U11G C12A C13G | 1.61 |
| U7A U8G U10C U11G C12A C13A | 1.42 |
| U7A U8G G9U U10G U11G C12G C13U | 0.953 |
| U7A U8G G9U U10G U11G C12G C13G | 1.24 |
| U7A U8G G9U U10G U11G C12G C13A | 1.16 |
| U7A U8G U11C C13U | 1.11 |
| U7A U8G U11C C13G | 1.35 |
| U7A U8G U11C C13A | 1.51 |
| U7A U8G U11G C12A C13A | 1.18 |
| U7A U8G U11G C12A C13U | 1.21 |
| U7A U8G U11G C12A C13G | 1.33 |
| U7A U8G G9U U10G U11G C13A | 1.16 |
| U7A U8G G9U U10G U11G C13U | 1.24 |
| U7A U8G G9U U10G U11G C13G | 1.19 |
| U7A U8G U10C C12G C13G | 1.05 |
| U7A U8G U10C C12G C13U | 1.28 |
| U7A U8G U10C C12G C13A | 1.19 |
| U7A U8G U10C U11A C12G | 1.48 |
| U7A U8G U10C U11A C12A | 1.5 |
| U7A U8G U10C U11A C12U | 1.27 |

| Variant | aptazyme ON/OFF ratio |
| --- | --- |
| U7A U8G U11A C12G C13G | 1.07 |
| U7A U8G U11A C12G C13U | 1.24 |
| U7A U8G U11A C12G C13A | 1.11 |
| U7A U8G U10G U11A C12A C13A | 1.55 |
| U7A U8G U10G U11A C12A C13G | 1.27 |
| U7A U8G U10G U11A C12A C13U | 1.34 |
| U7A U8G U11C C12G C13G | 1.17 |
| U7A U8G U11C C12G C13A | 1.02 |
| U7A U8G U11C C12G C13U | 1.2 |
| U7A U8G G9U U11G C12A C13A | 1.26 |
| U7A U8G G9U U11G C12A C13G | 1.27 |
| U7A U8G G9U U11G C12A C13U | 1.2 |
| U7A U8G G9U U11A C12A C13A | 1.53 |
| U7A U8G G9U U11A C12A C13G | 1.38 |
| U7A U8G G9U U11A C12A C13U | 1.25 |
| U7A U8G G9U U10G U11A C12G C13A | 1.13 |
| U7A U8G G9U U10G U11A C12G C13G | 1.38 |
| U7A U8G G9U U10G U11A C12G C13U | 1.02 |
| U7A U8G U10G U11C C12U C13U | 1.41 |
| U7A U8G U10G U11C C12U C13G | 1.11 |
| U7A U8G U10G U11C C12U C13A | 0.988 |

| Variant | aptazyme ON/OFF ratio |
| --- | --- |
| U7A U8G G9U U11C C12A C13A | 1.68 |
| U7A U8G G9U U11C C12A C13G | 1.12 |
| U7A U8G G9U U11C C12A C13U | 1.11 |
| U7A U8G G9U U10G C12U C13G | 1.24 |
| U7A U8G G9U U10G C12U C13U | 1.21 |
| U7A U8G U10A C12A C13G | 1.23 |
| U7A U8G U10A C12A C13U | 1.48 |
| U7A U8G U10A C12A C13A | 1.17 |
| U7A U8G U10C U11G | 1.29 |
| U7A U8G U10C U11C | 2.69 |
| U7A U8G U10C U11A | 1.95 |
| U7A U8G U11A C12A C13A | 1.41 |
| U7A U8G U11A C12A C13U | 1.07 |
| U7A U8G U11A C12A C13G | 1.3 |
| U7A U8G U11A C13G | 1.4 |
| U7A U8G U11A C13A | 1.31 |
| U7A U8G U11A C13U | 1.11 |
| U7A U8G G9U U11G C12U C13A | 1.18 |
| U7A U8G G9U U11G C12U C13G | 1.29 |
| U7A U8G G9U U11G C12U C13U | 1.29 |
